{"source": "paper PMC5793882", "about": "(Cell, 2018)", "molecular_target": "the molecule itself", "experiment": "negative-stain electron microscopy"}
{"protein": "Drosophila Arc1 protein (natural protein, UniProt Q7K1U0 1-254, looked up) MAQLTQMTNEQLRELIEAVRAAAVGAAGSAAAAGGADASRGKGNFSACTHSFGGTRDHDVVEEFIGNIETYKDVEGISDENALKGISLLFYGMASTWWQGVRKEATTWKEAIALIREHFSPTKPAYQIYMEFFQNKQDDHDPIDTFVIQKRALLAQLPSGRHDEETELDLLFGLLNIKYRKHISRHSVHTFKDLLEQGRIIEHNNQEDEEQLATAKNTRGSKRTTRCTYCSFRGHTFDNCRKRQKDRQEEQHEE", "values": [{"measurement": "binding result", "value": "binds"}]}
